Source: patent publication US20200247855A1, “THERAPY AND DIAGNOSTICS” (OXFORD UNIVERSITY INNOVATION LIMITED, priority 2017, published 2020)

T1: CCL17_HUMAN (Homo sapiens, UniProt Q92583)
T1 sequence (Q92583 24-94): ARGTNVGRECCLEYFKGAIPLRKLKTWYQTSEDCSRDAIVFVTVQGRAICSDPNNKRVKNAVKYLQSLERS

T2: CCL18_HUMAN (Homo sapiens, UniProt P55774)
T2 sequence (P55774 21-89): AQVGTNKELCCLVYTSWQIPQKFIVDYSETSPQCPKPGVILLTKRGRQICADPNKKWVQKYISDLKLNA

T3: CCL19_HUMAN (Homo sapiens, UniProt Q99731)
T3 sequence (Q99731 22-98): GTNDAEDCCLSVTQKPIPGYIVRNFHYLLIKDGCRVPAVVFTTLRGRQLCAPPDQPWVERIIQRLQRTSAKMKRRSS

T4: CCL1_HUMAN (Homo sapiens, UniProt P22362)
T4 sequence (P22362 24-96): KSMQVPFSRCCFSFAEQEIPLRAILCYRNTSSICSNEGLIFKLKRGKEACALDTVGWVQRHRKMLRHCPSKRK

T5: CCL22_HUMAN (Homo sapiens, UniProt O00626)
T5 sequence (O00626 25-93): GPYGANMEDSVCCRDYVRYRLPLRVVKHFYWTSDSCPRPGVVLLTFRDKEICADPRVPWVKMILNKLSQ

T6: CCL24_HUMAN (Homo sapiens, UniProt O00175)
T6 sequence (O00175 27-119): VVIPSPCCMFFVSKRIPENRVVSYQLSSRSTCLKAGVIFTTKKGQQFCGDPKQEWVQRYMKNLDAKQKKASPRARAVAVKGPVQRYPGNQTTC

T7: CCL27_HUMAN (Homo sapiens, UniProt Q9Y4X3)
T7 sequence (Q9Y4X3 25-112): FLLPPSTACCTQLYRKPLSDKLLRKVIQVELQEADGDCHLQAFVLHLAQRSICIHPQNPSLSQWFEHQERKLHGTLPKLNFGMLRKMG

T8: CCL4L1_HUMAN (Homo sapiens, UniProt Q8NHW4)
T8 sequence (Q8NHW4 24-92): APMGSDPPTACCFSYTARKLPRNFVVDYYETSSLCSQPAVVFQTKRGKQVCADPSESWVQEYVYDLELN

T9: CCL5_HUMAN (Homo sapiens, UniProt P13501)
T9 sequence (P13501 24-91): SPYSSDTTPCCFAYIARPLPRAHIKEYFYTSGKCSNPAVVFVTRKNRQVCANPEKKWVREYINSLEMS


Tests used:
Assay in all cases: Biolayer interferometry (BLI) binding
[1] = target: CCL11_HUMAN (Homo sapiens, UniProt P51671)
How it was run: (§1)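 Analyte: chemokine, screened at 300 nM then as a dose series for binders. Ligand: purified His-tagged tick evasin on Ni-NTA sensors. Kd obtained by fitting association, equilibrium and dissociation traces.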

[2] = target: T1, CCL17_HUMAN
How it was run: as §1

[3] = target: T2, CCL18_HUMAN
How it was run: as §1

[4] = target: T3, CCL19_HUMAN
How it was run: as §1

[5] = target: T4, CCL1_HUMAN
How it was run: as §1

[6] = target: CCL20_HUMAN (Homo sapiens, UniProt P78556)
How it was run: as §1

[7] = target: T5, CCL22_HUMAN
How it was run: as §1

[8] = target: T6, CCL24_HUMAN
How it was run: as §1

[9] = target: T7, CCL27_HUMAN
How it was run: as §1

[10] = target: T8, CCL4L1_HUMAN
How it was run: as §1

[11] = target: T9, CCL5_HUMAN
How it was run: as §1

[12] = target: CCL2_HUMAN (Homo sapiens, UniProt P13500)
How it was run: as §1

Sequence of CCL20_HUMAN (P78556 27-96): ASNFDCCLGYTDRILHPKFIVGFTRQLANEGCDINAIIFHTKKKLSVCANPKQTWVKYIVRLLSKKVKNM
Sequence of CCL11_HUMAN (P51671 24-97): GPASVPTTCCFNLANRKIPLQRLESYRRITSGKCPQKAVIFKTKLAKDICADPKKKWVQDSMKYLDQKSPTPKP
Sequence of CCL2_HUMAN (P13500 24-99): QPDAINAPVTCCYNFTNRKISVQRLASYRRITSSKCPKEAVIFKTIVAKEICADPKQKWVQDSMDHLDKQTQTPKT

| Molecule | Kd [1] [nM] | Kd [2] [nM] | Kd [3] [nM] | Kd [4] [nM] | Kd [5] [nM] | Kd [6] [nM] | Kd [7] [nM] | Kd [8] [nM] | Kd [9] [nM] | Kd [10] [nM] | Kd [11] [nM] | Kd [12] [nM] |
| --- | --- | --- | --- | --- | --- | --- | --- | --- | --- | --- | --- | --- |
| P1243_AMBAM: tick CKBP, Amblyomma americanum; AAM-02 stated identical (protein, listed as Amblyomma americanum) RNHTEDNSTEYYDYEEARCACPARHLNNTNGTVLKLLGCHYFCNGTLCTAPDGYPCYNLTAQQVRTLTTYPNTSCAVGVCMKGTCVKNGTMEQCFKTP | 6.03 | 0.734 | 0.00501 | 0.592 | 21.3 | 8.34 | 22.3 | 7.39 | 15.1 | 35.4 | 1.74 |  |
| P672_RHIPU: tick CKBP, Rhipicephalus pulchellus (protein, listed as Rhipicephalus pulchellus) VCEVSEQEGVGEDNATEDEDYEDFFKPVTCYFANSTVGPLRPPNCTVVCTNNTAWWNDTKSDGGHCYSEYRPEKRTHSREIYNCTIGVCGNGTCIANHTYADCW |  |  |  |  |  |  |  |  |  |  |  | 9.1 |
